Experimental data taken from patent US20060040861A1, “Method of treating, preventing, and diagnosing prostate cancer” (priority 2004, published 2006).

Legend:
[1] = test system: PC-3 cells; assay: MTT assay (cell growth / viability); type: cell-based, human; details: 5 days
Experimental: (§1) DU145 (1×10^3/well), PC-3 (1×10^3/well) and LNCaP-FGC (1.5×10^3/well) cells were seeded in 96-well plates 24 hours prior to serum starvation. Cells were starved of serum for 24 hours and then incubated in the serum-free medium with or without 12.5 μg/ml leptin for 5 days. 3-(4,5-dimethylthiazol-2-yl)-2,5-diphenyl tetrazolium bromide (MTT) was added to each well to a concentration of 0.5 mg/ml. After 3-hour incubation at 37° C., cells were lysed in 50% dimethylformamide and 20% SDS at 37° C. Optical densities (O.D.) at 550 nm and 670 nm were measured by a plate reader, and differential O.D. between 550 nm and 670 nm (O.D. 550 nm minus O.D. 670 nm) were determined. Each experiment was performed in quadruplicate, and the values are reported as mean±SD.
(§2) DU145 (0.5-1.0×10^3/well), PC-3 (0.5-1.0×10^3/well), and LNCaP FGC (0.75-1.5×10^3/well) cells were seeded in 96-well plates 24 hours prior to serum starvation. Cells were starved of serum for 24 hours and then incubated in the serum-free medium with or without cytokine(s), DHT and/or doxorubicin at indicated concentrations for 5 days. MTT was added to each well to a concentration of 0.5 mg/ml. After being incubated at 37° C. for 3 hours, cells were lysed in 50% dimethylformamide and 20% SDS at 37° C. Optical densities (OD) at 550 and 670 nm were measured by a plate reader, and differential OD between 550 and 670 nm (OD 550 minus OD 670 nm) were determined. Each experiment was performed in quadruplicate, and the values were reported as mean±S.D.

[2] = test system: LNCaP-FGC cells; assay: MTT assay (cell growth / viability); type: cell-based, human; details: 5 days
Experimental: as §1, §2

[3] = test system: c-Jun; assay: Western blot analysis of c-Jun phosphorylation in human cancer cells; type: cell-based
Experimental: Eighty-percent confluent prostate cancer cells were starved in the serum-free medium for 24 hours and then treated by 12.5 μg/ml leptin or 10 μg/ml anisomycin for the indicated periods. In some experiments, cells were pretreated with SP600125 prior to cytokine stimulation as described below. Cells were washed twice with cold PBS, harvested by a scraper and centrifuged for 10 minutes at 700×g at 4° C. The pellet was homogenized in the cell lysis buffer (20 mM HEPES, pH 7.9, 300 mM NaCl, 1 mM EDTA, 15% glycerol, 0.5% NP-40, 1 mM Na3VO4, 1 μg/ml leupeptin, 5 μg/ml aprotinin, 1 μg/ml pepstatin and 1 mM PMSF) and incubated at 4° C. with gentle rocking for 30 minutes. This homogenate was centrifuged for 5 minutes at 15,000×g, and the supernatant was saved as a cell lysate and stored at −80° C. until use.
Cell lysates containing 100 μg of protein were electrophoresed on 10% SDS-polyacrylamide gels and electrotransferred to PVDF membranes. Following the supplier's instructions, the membranes were washed, blocked and hybridized with anti-phospho-c-Jun (Ser-63 or Ser-73) polyclonal antibody that specifically recognizes a phosphorylated form of c-Jun. Bands were visualized using a Lumiglo reagent (Cell Signaling Technology Inc.). The membranes were then stripped and re-hybridized with anti-c-Jun antibody that detects both phosphorylated and unphosphorylated forms to normalize sample variations.
SP600125 was dissolved in DMSO to make a stock solution. Eighty-percent confluent prostate cancer cells were serum-starved for 24 hours and pretreated with SP600125 at indicated concentrations for 30 minutes, followed by leptin treatment (12.5 μg/ml): 15 minutes for Western blot analysis or 20 hours for thymidine incorporation assays. DMSO-treated cells were employed as controls.
Seventy-percent confluent cells were deprived of serum for 24 hours, followed by treatment with 1 μg/ml f- or g-adiponectin or 10 μg/ml anisomycin for indicated periods. After being rinsed with cold phosphate-buffered saline, cells were harvested using a scraper and collected by centrifugation at 700×g for 10 minutes at 4° C. The cell pellets were then homogenized in cell lysis buffer (20 mM HEPES, pH 7.9, 300 mM NaCl, 1 mM Na3VO4, 1 μg/ml leupeptin, 5 μg/ml aprotinin, 1 μg/ml pepstatin, and 1 mM phenylmethylsulfonyl fluoride) and rocked gently for 30 minutes at 4° C. The homogenates were centrifuged at 15,000×g for 5 minutes at 4° C., and the supernatants were saved as cell lysates and stored at −80° C. until use.
Cell lysates (100 μg of protein) were electrophoresed on 10% SDS-polyacrylamide gels and transferred to polyvinylidene difluoride membranes. […]

[4] = test system: DU145 cells; assay: MTT assay (cell growth / viability); type: cell-based, human; details: 5 days
Experimental: as §1, §2
Sucrose gradients were set up in 2.2-ml centrifuge tubes (Beckman Coulter, Inc., Fullerton, Calif.) by layering 5, 10, 15 and 20% (w/v) sucrose in velocity sedimentation buffer (10 mM HEPES, pH 8; 125 mM NaCl). Gradients were then equilibrated overnight at 4° C. Twenty micrograms of f-adiponectin in 200 μl of velocity sedimentation buffer containing 5 μl of HMW-Native protein marker kit (GE Healthcare, Piscataway, N.J.) set to 0.5 μg/μl albumin was overlayed onto the sucrose gradients and spun in a Beckman TLS-55 rotor at 55,000 rpm for 5 hours at 4° C. Fractions (150 μl each) were sequentially collected from the top to the bottom; aliquots were removed and used immediately in the MTT assay. The remaining material was stored at −80° C. for Western blot analysis with anti-adiponectin antibody and SDS-PAGE with silver staining. For the MTT assay, DU145 cells (0.5×1 03/well) were serum-starved and incubated in triplicate in 60 μl of the serum-free medium plus 30 μl of each fraction. For Western blot analysis, 0.5 μl of each fraction was electrophoresed on a 10% SDS-polyacrylamide gel and electrotransferred to a polyvinylidene difluoride membrane. The membrane was washed, blocked, and hybridized with the anti-adiponectin antibody. Bands were visualized using a Lumiglo reagent (Cell Signaling Technology, Inc., Beverly, Mass.). For SDS-PAGE, 20 μl of each fraction was electrophoresed on a 10% SDS-polyacrylamide gel, followed by silver staining using the Silver Stain kit (Bio-Rad Laboratories, Inc., Hercules, Calif.) to visualize molecular weight markers.

leptin: Recombinant human leptin purchased from R&D Systems; major adipose cytokine
living cells (MTT) ([1]; 12.5 μg/ml leptin, serum-free): increased living cells | live cell mass (MTT) ([2]; 12.5 μg/ml leptin, serum-free): did not influence | c-Jun phosphorylation on Ser-63 and Ser-73 ([3]; DU145 and PC-3 cells, 12.5 μg/ml leptin): stimulated c-Jun phosphorylation | cell growth (MTT), leptin together with IGF-I ([4]; 12.5 μg/ml leptin and 100 ng/ml IGF-I, absence of androgen): stimulated cell growth synergistically | living cells (MTT) ([4]; 12.5 μg/ml leptin, serum-free): increased living cells

B1: f-adiponectin: Recombinant human full-length (non-proteolytic) adiponectin, about 30-kDa polypeptide; lot mainly HMW form (protein, UniProt Q15848 1-244, looked up)
chain: MLLLGAVLLLLALPGHDQETTTQGPGVLLPLPKGACTGWMAGIPGHPGHNGAPGRDGRDGTPGEKGEKGDPGLIGPKGDIGETGVPGAEGPRGFPGIQGRKGEPGEGAYVYRSAFSVGLETYVTIPNMPIRFTKIFYNQQNHYDGSTGKFHCNIPGLYYFAYHITVYMKDVKVSLFKKDKAMLFTYDQYQENNVDQASGSVLLHLEVGDQVWLQVYGEGERNGLYADNDNDSTFTGFLLYHDTN
modifications: full-length
notes: Recombinant human full-length (non-proteolytic) adiponectin, about 30-kDa polypeptide; lot mainly HMW form
effect on the conditioned medium stimulation of cell growth (MTT) ([1]; 1 μg/ml f-adiponectin): drastically suppressed | effect on the doxorubicin suppression of cell growth (MTT) ([1]; 1 μg/ml f-adiponectin): enhanced the doxorubicin suppression | cell growth (MTT) at concentrations up to 1 μg/ml ([1]; serum-free): inhibited cell growth in a dose-dependent manner | concentration at which the inhibitory effect on cell growth saturated ([1]; MTT): 1 µg/mL | effect on DHT-stimulated cell growth (MTT) ([2]; 1 μg/ml f-adiponectin, 10 nM DHT): significantly suppressed | effect on the conditioned medium stimulation of cell growth (MTT) ([2]; 1 μg/ml f-adiponectin): drastically suppressed | effect on the doxorubicin suppression of cell growth (MTT) ([2]; 1 μg/ml f-adiponectin): enhanced the doxorubicin suppression | cell growth (MTT) at concentrations up to 1 μg/ml ([2]; serum-free): inhibited cell growth in a dose-dependent manner | concentration at which the inhibitory effect on cell growth saturated ([2]; MTT): 1 µg/mL | c-Jun phosphorylation at Ser-63 ([3]; DU145, PC-3, LNCaP-FGC and HepG2 cells, 1.0 μg/ml): augmented c-Jun phosphorylation at Ser-63 | c-Jun phosphorylation at Ser-73 ([3]; DU145, PC-3 and HepG2 cells, 1.0 μg/ml): stimulated Ser-73 phosphorylation | c-Jun phosphorylation at Ser-73 ([3]; LNCaP-FGC cells, 1.0 μg/ml): quite modest | effect on the leptin and/or IGF-I stimulation of cell growth (MTT) ([4]; 1 μg/ml f-adiponectin, 12.5 μg/ml leptin and/or 100 ng/ml IGF-I): remarkably suppressed | effect on the conditioned medium stimulation of cell growth (MTT) ([4]; 1 μg/ml f-adiponectin): drastically suppressed | effect on the doxorubicin suppression of cell growth (MTT) ([4]; 1 μg/ml f-adiponectin): enhanced the doxorubicin suppression | cell growth (MTT) at concentrations up to 1 μg/ml ([4]; serum-free): inhibited cell growth in a dose-dependent manner | concentration at which the inhibitory effect on cell growth saturated ([4]; MTT): 1 µg/mL
